The Kd is the concentration at which binding is half-saturated. One may read the koff as a measure of how fast the partners let go of each other. By kon is commonly meant the second-order rate constant of association. Read a high kon as fast association. The term EC50 denotes the concentration that produces a half-maximal response. A lower EC50 goes with an effect from little substance.

Assay [1] concerns the target T1, EGFR and PD-L1 on EGFR/PD-L1 double positive A431 cells (UniProt P00533 25-1210; Q9NZQ7 19-290).
T1 construct: whole, on cells; Two separate cell-surface proteins, not a complex; also called A431 (EGFR+/PD-L1+)
Briefly: flow cytometry; Jurkat cells with antibody mixed with Calcein AM-stained A431 cells; anti-human Fc PE detection; Q2 = PE-positive Calcein-stained A431 events; Neg Ctrl Q2 0.13.

Assay [2] has as its target T1, EGFR and PD-L1 on EGFR/PD-L1 double …. Briefly: flow cytometry on A431 cells. In general terms: Flow cytometry measures light scatter and fluorescence of single cells or particles in a stream.
Assay [3] addresses T2, His6-PD-L1-TS (soluble, monomeric PD-L1) (UniProt Q9NZQ7 19-238).
T2 construct: not shown: TwinStrepII tag (TS)
Put plainly: BLI, antibody on AHC biosensors. For orientation: In BLI a coated tip is dipped into the sample, and binding shifts an interference pattern.

The target of assay [4] is T3, soluble IL-6R (sIL-6R-TS) (UniProt P08887 20-358).
T3 construct: not shown: TwinStrepII tag (TS)
T3 sequence (looked up): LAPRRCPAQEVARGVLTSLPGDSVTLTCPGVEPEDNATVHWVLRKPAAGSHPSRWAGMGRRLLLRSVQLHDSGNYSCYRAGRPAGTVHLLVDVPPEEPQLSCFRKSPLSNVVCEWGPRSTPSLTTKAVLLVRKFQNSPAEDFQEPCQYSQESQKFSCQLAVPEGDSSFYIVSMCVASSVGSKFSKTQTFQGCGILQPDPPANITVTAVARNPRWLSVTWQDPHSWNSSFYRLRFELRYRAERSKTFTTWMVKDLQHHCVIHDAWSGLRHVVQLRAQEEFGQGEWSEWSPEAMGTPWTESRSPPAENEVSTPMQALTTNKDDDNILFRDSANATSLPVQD
Put plainly: BLI, antibody on AHC biosensors.

Assay [5] has as its target T4, His6-EGFR-TS (soluble, monomeric EGFR) (UniProt P00533 25-645).
T4 construct: not shown: TwinStrepII tag (TS)
Put plainly: BLI, antibody on AHC biosensors.

Assay [6] concerns the target T5, programmed death-ligand 1 (PD-L1), soluble, as used in BLI (UniProt Q9NZQ7 19-238).
T5 construct: extracellular domain; also called PD-L1-ECD
Put plainly: BLI.

Assay [7] concerns the target T6, epidermal growth factor receptor (EGFR), soluble, as used in BLI (UniProt P00533 25-645).
T6 construct: extracellular domain; also called EGFR-ECD
Put plainly: BLI.

In assay [8] the target is T5, programmed death-ligand 1 (PD-L1), …. Briefly: BLI. This is another data set of the same source.
The target in assay [9] is T6, epidermal growth factor receptor …. Briefly: BLI. This is another data set of the same source.
Assay [10] deals with T1, EGFR and PD-L1 on EGFR/PD-L1 double …. Put plainly: flow cytometry on EGFR/PD-L1 double-positive A431 cells, anti-human Fc PE detection.
Another assay addresses 294-543 (human, UniProt P00533). Briefly: flow cytometry on yeast cells displaying truncated EGFR fragments; detection with goat anti-human Fc PE.
Another assay addresses 273-621 (human, UniProt P00533). The assay is described as above.
The target in the next assay is 475-621 (human, UniProt P00533). Described as above.
Assay [11] concerns the target PD-L1 on cells (A431; cells of the Promega PD-L1 blockade assay kit) (UniProt Q9NZQ7 19-290). Put plainly: cell-based or functional assay.
Assay [12] deals with T3, soluble IL-6R (sIL-6R-TS). Briefly: BLI simultaneous binding; antibody on AHC biosensors; 200 nM IL-6R, then 500 nM EGFR, then 500 nM PD-L1, 300 s each.
Assay [13] has as its target T7, IL-6R on cells (THP-1, A549) (UniProt P08887 20-468, limits assumed).
T7 construct: whole, on cells; also called THP-1 (IL-6R+/PD-L1+)
T7 sequence (looked up): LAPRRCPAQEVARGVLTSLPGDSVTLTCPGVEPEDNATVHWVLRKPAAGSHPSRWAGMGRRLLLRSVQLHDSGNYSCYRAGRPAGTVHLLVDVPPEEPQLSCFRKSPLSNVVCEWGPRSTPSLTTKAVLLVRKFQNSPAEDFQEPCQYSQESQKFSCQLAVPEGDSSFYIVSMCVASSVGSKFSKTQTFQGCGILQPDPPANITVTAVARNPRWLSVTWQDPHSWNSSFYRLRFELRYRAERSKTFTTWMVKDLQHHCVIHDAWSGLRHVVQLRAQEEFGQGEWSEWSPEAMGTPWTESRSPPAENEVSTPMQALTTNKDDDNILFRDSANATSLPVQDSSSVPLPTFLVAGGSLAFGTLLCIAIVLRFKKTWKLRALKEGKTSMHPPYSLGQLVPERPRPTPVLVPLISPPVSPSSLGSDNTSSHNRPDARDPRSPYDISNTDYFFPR
Briefly: flow cytometry on THP-1 cells; legend: - represents no significant binding.

The target of assay [14] is T8, CD3 (CD3ε) on cells (Jurkat; TCR/CD3 effector cells) (UniProt P07766 23-207, limits assumed).
T8 construct: whole, on cells; that number is the CD3ε entry; also called Jurkat (CD3+)
Put plainly: flow cytometry; Jurkat cells with antibody mixed with Calcein AM-stained A431 cells; anti-human Fc PE detection; Q3 = CD3-binding on Jurkats.

Where two headings read alike, the source gives them in different places.

T5 sequence (Q9NZQ7 19-238): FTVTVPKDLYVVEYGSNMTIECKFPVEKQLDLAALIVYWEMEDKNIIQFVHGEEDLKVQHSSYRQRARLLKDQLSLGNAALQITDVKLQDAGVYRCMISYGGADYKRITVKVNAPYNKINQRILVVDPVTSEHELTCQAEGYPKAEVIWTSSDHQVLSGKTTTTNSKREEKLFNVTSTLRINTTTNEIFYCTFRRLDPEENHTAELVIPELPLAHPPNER
T2 sequence (Q9NZQ7 other isoform, or with tags, fused parts or gaps): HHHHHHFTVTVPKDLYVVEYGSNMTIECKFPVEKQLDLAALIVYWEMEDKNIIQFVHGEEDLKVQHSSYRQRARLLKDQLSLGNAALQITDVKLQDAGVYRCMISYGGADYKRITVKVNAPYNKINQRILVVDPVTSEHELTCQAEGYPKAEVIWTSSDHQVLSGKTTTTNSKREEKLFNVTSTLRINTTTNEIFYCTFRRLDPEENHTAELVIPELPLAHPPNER
T8 sequence (P07766 23-207 limits assumed): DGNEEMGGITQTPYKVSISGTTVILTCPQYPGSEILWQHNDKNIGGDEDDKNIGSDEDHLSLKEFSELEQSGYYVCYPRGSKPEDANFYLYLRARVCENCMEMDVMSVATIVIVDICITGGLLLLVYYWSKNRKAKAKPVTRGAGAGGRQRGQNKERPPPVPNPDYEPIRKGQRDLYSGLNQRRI
PD-L1 on cells (A431; cells of the Promega PD-L1 blockade assay kit), sequence (Q9NZQ7 19-290): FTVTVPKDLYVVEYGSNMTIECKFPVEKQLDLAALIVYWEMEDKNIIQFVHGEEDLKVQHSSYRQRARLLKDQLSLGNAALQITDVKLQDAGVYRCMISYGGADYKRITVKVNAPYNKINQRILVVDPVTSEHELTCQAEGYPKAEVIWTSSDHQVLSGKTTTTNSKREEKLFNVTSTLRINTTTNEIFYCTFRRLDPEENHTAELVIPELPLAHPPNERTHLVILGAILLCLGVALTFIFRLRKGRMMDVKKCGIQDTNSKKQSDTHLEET

B1: (αCD3ε)K(αIL-6R)+H(αIL-6R) TriTECM (bispecific antibody)
heavy 1: not shown
heavy 2: AVTLDESGGGLQTPGGALSLVCKASGFDFSSYDMAWVRQAPGKGLEWVAGIKSNGPWTNYGAAVKGRATISRDNGQSTVRLQLNNLRAEDTAIYYCAKPGAGYVGWDAAGTIDSWGHGTEVIVSSASTKGPSVFPLAPSSKSTSGGTAALGCLVKDYFPEPVTVSWNSGALTSGVHTFPAVLQSSGLYSLSSVVTVPSSSLGTQTYICNVNHKPSNTKVDKRVEPKSCDKTHTCPPCPAPEAAGGPSVFLFPPKPKDTLMISRTPEVTCVVVDVSHEDPEVKFNWYVDGVEVHNAKTKPREEQYNSTYRVVSVLTVLHQDWLNGKEYKCKVSNKALPAPIEKTISKAKGQPREPQVYTLPPSREEMTKNQVSLSCAVKGFYPSDIAVEWESNGQPENNYKTTPPVLDSDGSFFLVSKLTVDKSRWQQGNVFSCSVMHEALHNRFTQKSLSLSPGGSHHHHHHGGGGSGGGGSGGGGSSEVQLVESGGGLVQPGRSLRLSCAASRFTFDDYAMHWVRQAPGKGLEWVSGISWNSGRIGYADSVKGRFTISRDNAENSLFLQMNGLRAEDTALYYCAKGRDSFDIWGQGTMVTVSSAGGGGSGGGGSGGGGSSDIQMTQSPSSVSASVGDRVTITCRASQGISSWLAWYQQKPGKAPKLLIYGASSLESGVPSRFSGSGSGTDFTLTISSLQPEDFASYYCQQANSFPYTFGQGTKLEIKR
light: ALTQPSSVSANLGETVKITCSGGAYSDCGWYQQKSPGSAPVTVIYYNDKRPSDIPSRFSGSTFGSTATLTITGVQAEDEAVYYCGGYDSRTGYVGVFGAGTTLTVLGQPKANPTVTLFPPSSEELQANKATLVCLISDFYPGAVTVAWKADGSPVKAGVETTKPSKQSNNKYAASSYLSLTPEQWKSHRSYSCQVTHEGSTVEKTVAPTECS
notes: Fabs from HCP-LCE; effector-silenced IgG1 LALA; also called scFv(VH)-IgG1(H)-scFv2
Turning to B1, the “Q2 (FITC+/PE+) % of events” value in assay [1] was 16.5%. The molecule also returned an On-cell affinity in [2] of 12.3 nM. The values for the Kd in assay [3], in [4] and in assay [5] were 130 nM, 2.71 nM and 271 nM, respectively.

B2: HCP-LCE (heavy chain PD-L1-light chain EGFR) Two-in-One antibody (bispecific antibody, human IgG1, lambda, L234A L235A, V domains shown)
VH: AVTLDESGGGLQTPGGALSLVCKASGFDFSSYDMAWVRQAPGKGLEWVAGIKSNGPWTNYGAAVKGRATISRDNGQSTVRLQLNNLRAEDTAIYYCAKPGAGYVGWDAAGTIDSWGHGTEVIVSS
VL: ALTQPSSVSANLGETVKITCSGGAYSDCGWYQQKSPGSAPVTVIYYNDKRPSDIPSRFSGSTFGSTATLTITGVQAEDEAVYYCGGYDSRTGYVGVFGAGTTLTVLG
notes: Symmetric full-length IgG; heavy chain is the ICI2 heavy chain, lambda CL; also called 2in1
For the molecule B2, the Kd in [6] was found to be 78.3 nM; in assay [7], 236 nM; in [8] it was 78.3 nM; in assay [9] it was 236 nM. For the same molecule, the values for the off-rate constant (koff) in assay [8] and in assay [9] were 0.0762 s⁻¹ and 0.0981 s⁻¹, respectively. Besides, the on-rate constant (kon) was determined as 973000 M⁻¹ s⁻¹ in [8] and 415000 M⁻¹ s⁻¹ in assay [9]. Further, the EC50 in [10] amounted to 1.37 nM. In addition, the binding result with 294-543, with 273-621 and with 475-621 was “no binding” each time. Moreover, the “EC50, cell-based PD-1/PD-L1 blockage assay (luciferase activity)” value in assay [11] was 214 nM.

B3: (αCD3ε)K+H (bispecific antibody)
heavy 1: not shown
heavy 2: AVTLDESGGGLQTPGGALSLVCKASGFDFSSYDMAWVRQAPGKGLEWVAGIKSNGPWTNYGAAVKGRATISRDNGQSTVRLQLNNLRAEDTAIYYCAKPGAGYVGWDAAGTIDSWGHGTEVIVSS
light: ALTQPSSVSANLGETVKITCSGGAYSDCGWYQQKSPGSAPVTVIYYNDKRPSDIPSRFSGSTFGSTATLTITGVQAEDEAVYYCGGYDSRTGYVGVFGAGTTLTVLGQPKANPTVTLFPPSSEELQANKATLVCLISDFYPGAVTVAWKADGSPVKAGVETTKPSKQSNNKYAASSYLSLTPEQWKSHRSYSCQVTHEGSTVEKTVAPTECS
notes: Control variant with anti-CD3ε scFv fused to the N-terminus of the VH of the knob chain; not shown: CH1 and Knob-Fc (IgG1 LALA) with Twin-StrepII tag; CH1 and Hole-Fc (IgG1 LALA) with His6 tag
Take B3: the “Q2 (FITC+/PE+) % of events” value in assay [1] was 15%. Also, the On-cell affinity in assay [2] was found to be 1.82 nM. Further, the values for the binding result in [12] and in assay [13] were “no binding (tested: 200 nM)” and “no binding”, respectively. Besides, the Kd in [3] was 108 nM; in assay [5], 236 nM.

B4: K+H (parental two-in-one antibody in Knob-into-Hole, effector-silenced LALA IgG1 format) (bispecific antibody, V domains shown)
VH: AVTLDESGGGLQTPGGALSLVCKASGFDFSSYDMAWVRQAPGKGLEWVAGIKSNGPWTNYGAAVKGRATISRDNGQSTVRLQLNNLRAEDTAIYYCAKPGAGYVGWDAAGTIDSWGHGTEVIVSS
VL: ALTQPSSVSANLGETVKITCSGGAYSDCGWYQQKSPGSAPVTVIYYNDKRPSDIPSRFSGSTFGSTATLTITGVQAEDEAVYYCGGYDSRTGYVGVFGAGTTLTVLG
notes: HCP-LCE Fabs on IgG1 LALA Knob-into-Hole Fc; also called parental K+H antibody
Turning to B4, the values for the binding result in [14], in assay [12] and in assay [13] were “no binding”, “no binding (tested: 200 nM)” and “no binding”, respectively. Further, in assay [1], the “Q2 (FITC+/PE+) % of events” value was 14%. This molecule also displayed an On-cell affinity in [2] of 2.5 nM. In addition, the Kd amounted to 92.9 nM in assay [3] and 173 nM in assay [5].

These data come from US20250163161A1 (TECHNISCHE UNIVERSIT T DARMSTADT, published 2025).
